Measured values from patent US20230002481A1 (Chugai, published 2023).

Biological target: T1, recombinant cyno C1r2s2 His/Flag tetramer (cynomolgus monkey, limits assumed)
T1 construct: Heterotetramer of two C1r-His and two C1s-Flag chains, co-expressed in FreeStyle293-F cells; also called cyno C1r2s2s
T1 chain 1: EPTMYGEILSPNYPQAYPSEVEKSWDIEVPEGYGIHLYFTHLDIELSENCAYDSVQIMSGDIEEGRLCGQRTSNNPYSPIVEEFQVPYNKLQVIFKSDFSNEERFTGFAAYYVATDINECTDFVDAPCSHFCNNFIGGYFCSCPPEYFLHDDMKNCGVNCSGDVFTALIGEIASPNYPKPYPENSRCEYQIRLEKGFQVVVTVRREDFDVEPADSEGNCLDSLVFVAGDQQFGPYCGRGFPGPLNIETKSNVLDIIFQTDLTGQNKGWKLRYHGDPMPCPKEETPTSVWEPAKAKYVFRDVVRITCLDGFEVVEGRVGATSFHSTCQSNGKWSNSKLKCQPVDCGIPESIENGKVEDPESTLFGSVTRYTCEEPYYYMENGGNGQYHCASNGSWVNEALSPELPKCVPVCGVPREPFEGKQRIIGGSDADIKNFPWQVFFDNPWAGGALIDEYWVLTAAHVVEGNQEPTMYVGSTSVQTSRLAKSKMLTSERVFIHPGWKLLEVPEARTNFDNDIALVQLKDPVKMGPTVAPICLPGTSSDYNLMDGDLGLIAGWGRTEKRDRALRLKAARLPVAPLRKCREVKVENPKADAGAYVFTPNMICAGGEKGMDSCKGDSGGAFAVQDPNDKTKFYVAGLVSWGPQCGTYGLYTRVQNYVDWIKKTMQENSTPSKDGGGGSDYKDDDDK
T1 chain 2: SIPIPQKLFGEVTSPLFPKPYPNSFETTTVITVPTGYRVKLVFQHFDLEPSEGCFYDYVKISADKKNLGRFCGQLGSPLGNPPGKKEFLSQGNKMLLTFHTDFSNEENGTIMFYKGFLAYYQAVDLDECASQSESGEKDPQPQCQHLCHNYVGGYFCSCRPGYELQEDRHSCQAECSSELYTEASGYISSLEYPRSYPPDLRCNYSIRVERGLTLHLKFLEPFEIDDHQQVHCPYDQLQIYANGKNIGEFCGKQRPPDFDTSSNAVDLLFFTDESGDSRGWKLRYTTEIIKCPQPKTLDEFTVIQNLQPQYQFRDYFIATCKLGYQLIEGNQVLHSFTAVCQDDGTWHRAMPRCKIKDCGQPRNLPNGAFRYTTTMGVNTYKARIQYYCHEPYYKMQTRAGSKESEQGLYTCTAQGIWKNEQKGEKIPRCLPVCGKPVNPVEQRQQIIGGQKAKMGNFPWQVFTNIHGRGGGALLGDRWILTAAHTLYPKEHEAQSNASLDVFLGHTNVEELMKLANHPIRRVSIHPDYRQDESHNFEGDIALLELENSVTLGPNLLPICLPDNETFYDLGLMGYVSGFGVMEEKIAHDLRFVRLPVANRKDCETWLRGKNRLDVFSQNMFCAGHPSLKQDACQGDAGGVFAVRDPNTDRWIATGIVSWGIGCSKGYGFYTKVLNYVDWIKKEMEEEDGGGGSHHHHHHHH
Assay: SPR (Biacore), antibody captured on ProA/G, antigen as analyte, 37 C, pH5.8, 1.2 mM CaCl2; pH 5.8
Method: The kinetic parameters of anti-C1s antibodies against recombinant human C1s (as described in PCT/JP2018/042054), human C1r2s2, and cyno C1r2s2 His/Flag (also referred as cyno C1r2s2 in the Table and Figures) were assessed at pH7.4 and pH5.8, at 37 degrees C. using BIACORE (registered trademark) T200 instrument (GE Healthcare) or BIACORE 4000 (GE Healthcare). ProAG (Pierce) was immobilized onto a CM4 sensorchip using amine coupling kit (GE Healthcare) according to the recommended settings by GE Healthcare. Antibodies and analytes were diluted into the respective running buffers, ACES pH7.4 and pH5.8 (20 mM ACES, 150 mM NaCl, 1.2 mM CaCl₂, 1 mg/ml BSA, 1 mg/ml CMD, 0.05% Tween 20, 0.005 w/v % NaN₃). Each antibody was captured onto the sensor surface by ProA/G. Antibody capture levels were typically 100-200 resonance units (RU). Then, recombinant C1s was injected at concentrations of 25 and 50 nM followed by dissociation at pH7.4 and pH5.8. The surface was regenerated using 10 mM Glycine-HCl, pH1.5. Kinetic parameters at neutral pH conditions and acidic conditions were determined by fitting the sensorgrams with 1:1 binding model using BIACORE (registered trademark) T200 Evaluation software, version 2.0 (GE Healthcare) or BIACORE 4000 Evaluation software. The dissociation rate at pH5.8 (after dissociation at pH7.4, indicated as pH5.8* in TABLE 2) was determined by processing and fitting data using Scrubber 2.0 (BioLogic Software) curve fitting software. The association rate (ka), dissociation rate (kd), binding affinity (KD) at pH7.4 and pH5.8 condition, and dissociation rate (kd) at pH5.8* condition of the antibodies are listed in TABLE 2. Some kinetic parameters of COS0098pHv1 in acidic condition were not correctly calculated because of its weak binding response.
Also, to observe the cross-reactivity of anti-C1s antibodies against human C1r2s2 and cyno C1r2s2 (cyno C1r2s2 His/Flag), BIACORE (registered trademark) kinetics analysis was performed.

B1: COS0098bb (antibody, V domains shown)
VH: QSVEESGGRLVTPGTPLTLTCTVSGFSLTKYTVSWVRQAPGKGLEWIGIINTGGSAYYATWAKGRFTFSKTSTTVDLQITSPTTEDTATYFCARGNGDTDYTNLWGPGTLVTVSS
VL: QVLTQTPSSVSEPVGGTVTINCQASENIYSALAWYQQKPGQPPKLLIYGASNLESGVPSRFKGSGSGTQFTLTISDLECADAATYYCQQYYFTSSTFGGGTKVEIK
notes: Anti-C1s rabbit antibody, parent of COS0098pHv1; the antibody was captured by ProA/G; also called anti-C1s antibody COS0098bb
- Kd: 0.894 nM
- koff: 0.00105 s⁻¹
- kon: 1.17e+06 M⁻¹ s⁻¹
